1 substance from PMC3240717 can be followed below.

This test addresses CD44-AFAP-110 complex (human (endogenous in MDA-MB-231)) (UniProt P16070). Nature of the test: radioligand binding.
Sequence of UniProt P16070 (P16070 21-742, chain 1 of 2): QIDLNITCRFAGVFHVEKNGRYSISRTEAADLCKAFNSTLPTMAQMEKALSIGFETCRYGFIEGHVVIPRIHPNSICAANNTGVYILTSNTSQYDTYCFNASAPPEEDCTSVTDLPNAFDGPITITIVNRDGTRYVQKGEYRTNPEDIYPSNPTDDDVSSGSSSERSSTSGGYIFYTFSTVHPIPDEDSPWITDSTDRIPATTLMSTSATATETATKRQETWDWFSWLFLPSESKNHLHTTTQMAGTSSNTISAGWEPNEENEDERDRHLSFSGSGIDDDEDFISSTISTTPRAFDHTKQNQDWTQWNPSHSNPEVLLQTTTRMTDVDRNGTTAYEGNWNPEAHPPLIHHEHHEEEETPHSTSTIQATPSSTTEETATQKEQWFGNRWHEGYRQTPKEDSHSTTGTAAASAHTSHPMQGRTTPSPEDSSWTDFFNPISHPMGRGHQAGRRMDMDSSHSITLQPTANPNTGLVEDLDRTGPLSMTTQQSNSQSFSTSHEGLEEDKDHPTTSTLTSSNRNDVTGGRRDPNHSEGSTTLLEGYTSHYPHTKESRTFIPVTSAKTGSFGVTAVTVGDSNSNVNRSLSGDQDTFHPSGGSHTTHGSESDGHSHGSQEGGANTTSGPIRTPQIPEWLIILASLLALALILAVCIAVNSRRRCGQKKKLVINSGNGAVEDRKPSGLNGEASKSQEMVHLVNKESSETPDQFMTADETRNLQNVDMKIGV
Sequence of UniProt P16070 (Q8N556 whole entry, chain 2 of 2, further chain): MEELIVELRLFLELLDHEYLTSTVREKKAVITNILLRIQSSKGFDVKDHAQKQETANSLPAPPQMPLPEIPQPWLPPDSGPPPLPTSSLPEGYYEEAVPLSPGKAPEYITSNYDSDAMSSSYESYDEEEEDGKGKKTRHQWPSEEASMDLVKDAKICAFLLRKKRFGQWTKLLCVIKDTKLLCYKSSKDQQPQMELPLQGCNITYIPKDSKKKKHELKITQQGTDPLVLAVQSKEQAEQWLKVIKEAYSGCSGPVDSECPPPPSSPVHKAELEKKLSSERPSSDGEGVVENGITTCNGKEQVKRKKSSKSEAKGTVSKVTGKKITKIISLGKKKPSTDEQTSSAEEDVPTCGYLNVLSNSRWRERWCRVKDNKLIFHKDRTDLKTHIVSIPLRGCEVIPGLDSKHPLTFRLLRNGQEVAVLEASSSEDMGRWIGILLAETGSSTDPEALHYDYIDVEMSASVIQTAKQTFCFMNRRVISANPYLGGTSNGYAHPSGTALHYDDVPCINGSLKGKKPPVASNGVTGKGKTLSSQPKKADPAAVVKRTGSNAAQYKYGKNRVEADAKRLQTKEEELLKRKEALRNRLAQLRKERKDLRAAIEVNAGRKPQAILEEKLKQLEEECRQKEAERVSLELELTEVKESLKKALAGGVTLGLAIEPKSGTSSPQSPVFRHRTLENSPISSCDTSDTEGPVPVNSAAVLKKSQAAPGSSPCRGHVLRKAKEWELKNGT

As for “filamentous actin (F-actin) (natural protein)”, the 125I-F-actin bound, cpm (cells: HA fragment (2-3 disaccharide) treatment) stood at 11700 cpm; the 125I-F-actin bound, cpm (cells: HMW-HA treatment) came out at 13800 cpm; the 125I-F-actin bound, cpm (cells: LMW-HA treatment) turned out to be 38400 cpm; the 125I-F-actin bound, cpm (cells: anti-CD44 IgG + LMW-HA treatment) came out at 12500 cpm. In addition, the 125I-F-actin bound, cpm (cells: no treatment, control) amounted to 12700 cpm; the 125I-F-actin bound, cpm (cells: normal IgG + LMW-HA treatment) was found to be 38000 cpm; the 125I-F-actin bound, cpm (cells: normal IgG + no HA treatment) amounted to 12500 cpm; the 125I-F-actin bound, cpm (cells: scrambled siRNA, HMW-HA treatment) amounted to 11500 cpm. Moreover, the 125I-F-actin bound, cpm (cells: scrambled siRNA, LMW-HA treatment) was 31800 cpm and the 125I-F-actin bound, cpm (cells: scrambled siRNA, no treatment, control) was 11000 cpm.
